From the Human Domainome abundance scans (Beltran et al. 2025)
± gives the uncertainty stated by the source.

B1: Ankyrin-2, residues 3571 to 3650; numbered along this chain, Q01484 (parent)
chain: ERLAYIADHLGFSWTELARELDFTEEQIHQIRIENPNSLQDQSHALLKYWLERDGKHATDTNLVECLTKINRMDIVHLME

Variants of: B1
Assay: abundance fitness (aPCA) (normalised: wild type 0, dead -1); higher = more abundant; growth selection in yeast, the domain comes from the species named
Settings: Homo sapiens

| Variant | abundance fitness |
| --- | --- |
| ERLAYIADHLGFSWTELARELDFTEEQIHQHRIENPNSLQDQSHALLKYWLERDGKHATDTNLVECLTKINRMDIVHLME | -0.707 ± 0.5 |
| ERLAYIADHLGFSWTELARELDFTEEQIHQTRIENPNSLQDQSHALLKYWLERDGKHATDTNLVECLTKINRMDIVHLME | -0.157 ± 0.074 |
| ERLAYIADHLGFSWTELAREVDFTEEQIHQIRIENPNSLQDQSHALLKYWLERDGKHATDTNLVECLTKINRMDIVHLME | -0.225 ± 0.077 |
| ERLAYIADHLGFSWTELAREQDFTEEQIHQIRIENPNSLQDQSHALLKYWLERDGKHATDTNLVECLTKINRMDIVHLME | -0.24 ± 0.095 |
| ERLAYIADHLGFSWTELAREFDFTEEQIHQIRIENPNSLQDQSHALLKYWLERDGKHATDTNLVECLTKINRMDIVHLME | 0.069 ± 0.17 |
| ERLAYIADHLGFSWTELARELDFTEEQIHQIRIENPNSLQDQSHALCKYWLERDGKHATDTNLVECLTKINRMDIVHLME | -0.163 ± 0.094 |
| ERLAYIADHLGFSWTELARELDFTEEQIHNIRIENPNSLQDQSHALLKYWLERDGKHATDTNLVECLTKINRMDIVHLME | -0.128 ± 0.18 |
| ERLAYIADHLGFSWTELARELDFTEEQIHTIRIENPNSLQDQSHALLKYWLERDGKHATDTNLVECLTKINRMDIVHLME | -0.023 ± 0.079 |
| ERLAYIADHLGFSWTELARELDFTEEQIHRIRIENPNSLQDQSHALLKYWLERDGKHATDTNLVECLTKINRMDIVHLME | 0 ± 0.048 |
| ERLAYIADHLGFSWTELARELDFTEEQIHQIRIENPNSLQDQSHALLKYWLERDGKHATDTNLVECLTKINRCDIVHLME | 0.226 ± 0.48 |
| ERLAYIADHLGFSWTELARELDFTEEQIHQIRIENPNSLQDQWHALLKYWLERDGKHATDTNLVECLTKINRMDIVHLME | -0.638 ± 0.32 |
| ERLAYIADHLGFSWTELARELDFTEEQIHQIRIENPNSLQDQSHALLKYWLERDGKHATDTNLVECLTKIWRMDIVHLME | -0.355 ± 0.093 |
| ERLAYIADHLGFSWTELARELDFTEEQIHQIRIENPNSLQDQSHALLKYWLERDGKHATDTNLVECLTKIERMDIVHLME | -0.153 ± 0.12 |
| ERLAYIADHLGFSWTELARELDFTEEQIHQIRIENPNSLQDQSWALLKYWLERDGKHATDTNLVECLTKINRMDIVHLME | -0.152 ± 0.11 |
| ERLAYIADHLGFSWTELARELDFTEEQIHQIRIENPNSLQNQSHALLKYWLERDGKHATDTNLVECLTKINRMDIVHLME | -0.02 ± 0.09 |
| ERLAYIADHLGFSWTELARELDFTEEQIHQIRIENPNSLQDQSHALLKYWLERDGKHAKDTNLVECLTKINRMDIVHLME | -0.025 ± 0.2 |
| ERLAYIADHLGFSWTELARELDFTEEQIHQIRIENPNSLQDQSHALLKYWLERDGKHASDTNLVECLTKINRMDIVHLME | 0.036 ± 0.046 |
| ERLAYIADHLGFSWTELARELDFTEEQIHQIRIENPNSLQDQSHALLKYWLERDGKHALDTNLVECLTKINRMDIVHLME | -0.04 ± 0.061 |

| Variant | abundance fitness |
| --- | --- |
| ERLAYIADHLGFSWTELARELTFTEEQIHQIRIENPNSLQDQSHALLKYWLERDGKHATDTNLVECLTKINRMDIVHLME | -0.048 ± 0.12 |
| ERLAYIADHLGFSWTELARELDFTEEQIHQIRIENPNSLQDQSHALLKYWLERDGKHATDTNLAECLTKINRMDIVHLME | -0.019 ± 0.078 |
| ERLAYIADHLGFSWTELARELDFTEEQIHQIRIENPNSLQDQSHALLKYWLERDGKHATDTNLVEVLTKINRMDIVHLME | 0.034 ± 0.052 |
| ERLAYIADHLGFSWTELARELDFTEEQIHQIRIEEPNSLQDQSHALLKYWLERDGKHATDTNLVECLTKINRMDIVHLME | -0.043 ± 0.088 |
| ERLAYIADHLGFSWTELARELDFTEEQIHQIRIEAPNSLQDQSHALLKYWLERDGKHATDTNLVECLTKINRMDIVHLME | -0.066 ± 0.066 |
| ERLAYIADHLGFSWTELARELDHTEEQIHQIRIENPNSLQDQSHALLKYWLERDGKHATDTNLVECLTKINRMDIVHLME | -0.663 ± 0.078 |
| ERLAYIADHLWFSWTELARELDFTEEQIHQIRIENPNSLQDQSHALLKYWLERDGKHATDTNLVECLTKINRMDIVHLME | -0.277 ± 0.099 |
| ERLAYIADHLGFSWTELARELDFTEEQIHQIRIENPNSLQDQSHALLEYWLERDGKHATDTNLVECLTKINRMDIVHLME | -0.027 ± 0.19 |
| ERLAYIADHLGFSWTELARELDFTEEQIHQIRIENPNSLQDQSHALLIYWLERDGKHATDTNLVECLTKINRMDIVHLME | -0.164 ± 0.17 |
| ERLAYNADHLGFSWTELARELDFTEEQIHQIRIENPNSLQDQSHALLKYWLERDGKHATDTNLVECLTKINRMDIVHLME | -0.6 ± 0.24 |
| ERLAYIADHLGFSWTELARELDFTEEQIHQIRIENPNSLQDQSHALLKYWVERDGKHATDTNLVECLTKINRMDIVHLME | -0.087 ± 0.1 |
| ERLAYIADHLGFSWTELARELDFTEEQIHQIRIENPNSLQDQSHALLKYWNERDGKHATDTNLVECLTKINRMDIVHLME | -0.123 ± 0.13 |
| ERLAYIADHLGFSWTELARELDFTEEQIHQIRIENPNSLQDQSHALLKYWLERDGKHATDTNLVECLTKTNRMDIVHLME | -0.226 ± 0.12 |
| ERLAYIADHLGFSWTELARELDFTEEQIHQIRIENPNSLQDQSHALLKYWLERDGKHATDTNLVECLTKCNRMDIVHLME | -0.113 ± 0.075 |
| ERYAYIADHLGFSWTELARELDFTEEQIHQIRIENPNSLQDQSHALLKYWLERDGKHATDTNLVECLTKINRMDIVHLME | -0.155 ± 0.2 |
| ERLAYIADHLGFSWTELARELDFTEEQIHQIRMENPNSLQDQSHALLKYWLERDGKHATDTNLVECLTKINRMDIVHLME | 0.011 ± 0.11 |
| ERLAYIADHLGFSWTELARELDFTEEQIHQIRLENPNSLQDQSHALLKYWLERDGKHATDTNLVECLTKINRMDIVHLME | -0.087 ± 0.052 |
